In PMC6641633 (ACS Omega, 2018):

Target: the molecule itself
Assay: dynamic light scattering

B1: truncated hepatitis B virus capsid protein Cp149, wild type (domain or fragment, UniProt P03146 1-149, looked up)
chain: MDIDPYKEFGATVELLSFLPSDFFPSVRDLLDTASALYREALESPEHCSPHHTALRQAILCWGELMTLATWVGVNLEDPASRDLVVSYVNTNMGLKFRQLLWFHISCLTFGRETVIEYLVSFGVWIRTPPAYRPPNAPILSTLPETTVV
stoichiometry N: 2

B2: Cp149-D2N/D4N mutant of the truncated hepatitis B virus capsid protein (domain or fragment, UniProt P03146 1-149, looked up)
chain: MNINPYKEFGATVELLSFLPSDFFPSVRDLLDTASALYREALESPEHCSPHHTALRQAILCWGELMTLATWVGVNLEDPASRDLVVSYVNTNMGLKFRQLLWFHISCLTFGRETVIEYLVSFGVWIRTPPAYRPPNAPILSTLPETTVV
stoichiometry N: 2
